Patent US7943731, “Dimerizing peptides” (Massachusetts Institute of Technology)

B1: single Zif12 site mutant duplex (dsDNA)
DNA 1: GGTTGCAGTGGGCGTATGCTCAGTACTTGAACGTAACG
DNA 2: CGTTACGTTCAAGTACTGAGCATACGCCCACTGCAACC
modifications: [none]
B2: phage-selection target duplex, inverted repeat (dsDNA)
DNA 1: GGTTGCAGTGGGCGCGCCCACAGTACTTGAACGTAACG
DNA 2: CGTTACGTTCAAGTACTGTGGGCGCGCCCACTGCAACC

Columns and labels:
fusion peptide 3-Zif12 [1] = biological target: T1, fusion peptide 3-Zif12 (synthetic 15-mer + Zif268, UniProt P08046 P08046:335-391); assay: EMSA; little or no activity with single site; settings: tags: N-terminal Met-Ala, leader peptide; chain copies: 2 stated; label: 32P end-label (Klenow)
Method: (§1) Figure 4B: FIG. 4(A) Sequences of peptide extensions (SEQ ID NOS: 24-29) isolated from the initial selection. Numbers in parentheses give the frequency of occurrences among the 45 clones sequenced. The clones for peptide 2 included a Glu-21-to-Asp mutation in the zinc finger region that may have been partially responsible for the affinity of this peptide. (B) Gel mobility-shift assays using purified fusion peptides 1, 3, and 5. Protein (2.5 µM, 250 nM, 25 nM, 250 pM, and no protein) was incubated with DNA containing either an inverted repeat of Zif12 sites or a single Zif12 site and then electrophoresed through native polyacrylamide gels. The reduced mobility of the inverted repeat probe in the presence of protein indicates the formation of protein-DNA complexes. Similar results were obtained with fusion peptides 2 and 6. Binding of peptide 4 depend on disulfide bond formation.
(§2) To assess their DNA-binding activity, peptides obtained in these initial selections were expressed in *Escherichia coli* (as fusions with Zif12), purified, and tested in gel mobility-shift assays (FIG. 4B). These fusion peptides bound specifically to duplex DNA containing an inverted repeat of the Zif12 sites, showing little or no activity with DNA containing a single site. The complexes with the inverted-repeat site all migrated similarly in the gel, with a mobility for the complexes that was consistent with the formation of dimers.

fusion peptide 1-Zif12 [2] = biological target: T2, fusion peptide 1-Zif12 (synthetic 15-mer + Zif268, UniProt P08046 P08046:335-391); assay: EMSA; little or no activity with single site; settings: tags: N-terminal Met-Ala, leader peptide; chain copies: 2 stated; label: 32P end-label (Klenow)
Method: as §1, §2

fusion peptide 5-Zif12 [3] = biological target: T3, fusion peptide 5-Zif12 (synthetic 15-mer + Zif268, UniProt P08046 P08046:335-391); assay: EMSA; little or no activity with single site; settings: tags: N-terminal Met-Ala, leader peptide; chain copies: 2 stated; label: 32P end-label (Klenow)
Method: as §1, §2

fusion peptide 6-Zif12 [4] = biological target: T4, fusion peptide 6-Zif12 (synthetic 15-mer + Zif268, UniProt P08046 P08046:335-391); assay: EMSA; little or no activity with single site; settings: tags: N-terminal Met-Ala, leader peptide; chain copies: 2 stated; label: 32P end-label (Klenow)
Method: as §1, §2

[5] = biological target: Zif12 (fingers 1-2 of Zif268) (UniProt P08046 P08046:333-390); assay: EMSA; no shift under these conditions; settings: tags: Gly-Ser dipeptide left at N terminus after GST removal; chain copies: 2 inferred (essentially noncooperative, one per half-site); label: 32P end-label (Klenow)
Method: as §1
as §2, with “The complexes with the inverted-repeat site all migrated similarly in the gel, with a mobility for the complexes that was consistent with the formation of dimers.” left out

fusion peptide 6-Zif12 [6] = biological target: T4, fusion peptide 6-Zif12; assay: EMSA; similar results to peptides 1, 3, 5; settings: tags: N-terminal Met-Ala, leader peptide; chain copies: 2 stated; label: 32P end-label (Klenow)
Method: as §1
as §2, with “The complexes with the inverted-repeat site all migrated similarly in the gel, with a mobility for the complexes that was consistent with the formation of dimers.” left out

fusion peptide 3-Zif12 [7] = biological target: T1, fusion peptide 3-Zif12; assay: EMSA; up to 2.5 uM protein; settings: tags: N-terminal Met-Ala, leader peptide; chain copies: 2 stated; label: 32P end-label (Klenow)
Method: as §1, §2

fusion peptide 1-Zif12 [8] = biological target: T2, fusion peptide 1-Zif12; assay: EMSA; up to 2.5 uM protein; settings: tags: N-terminal Met-Ala, leader peptide; chain copies: 2 stated; label: 32P end-label (Klenow)
Method: as §1, §2

fusion peptide 5-Zif12 [9] = biological target: T3, fusion peptide 5-Zif12; assay: EMSA; up to 2.5 uM protein; settings: tags: N-terminal Met-Ala, leader peptide; chain copies: 2 stated; label: 32P end-label (Klenow)
Method: as §1, §2

T2 sequence (P08046 335-391, one chain of several): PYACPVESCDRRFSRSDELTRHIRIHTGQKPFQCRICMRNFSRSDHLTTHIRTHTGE
T1 sequence (P08046 335-391, one chain of several): as above
T3 sequence (P08046 335-391, one chain of several): as above
T4 sequence (P08046 335-391, one chain of several): as above
Sequence of Zif12 (fingers 1-2 of Zif268) (P08046 333-390, one chain of several): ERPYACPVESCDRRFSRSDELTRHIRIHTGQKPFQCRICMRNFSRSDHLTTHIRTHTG

| Binder | binding result (fusion peptide 3-Zif12 [1]) | binding result (fusion peptide 1-Zif12 [2]) | binding result (fusion peptide 5-Zif12 [3]) | binding result (fusion peptide 6-Zif12 [4]) | binding result [5] | binding result (fusion peptide 6-Zif12 [6]) | binding result (fusion peptide 3-Zif12 [7]) | binding result (fusion peptide 1-Zif12 [8]) | binding result (fusion peptide 5-Zif12 [9]) |
| --- | --- | --- | --- | --- | --- | --- | --- | --- | --- |
| B1 | no binding | no binding | no binding | no binding | no binding | – | – | – | – |
| B2 | – | – | – | – | no binding | binds | binds | binds | binds |
